Our source for the Kd values is paper PMC9122893 (Cell host & microbe, 2021).

The test addresses T1, IpaH7.8 wild-type (recombinant) (Shigella flexneri, UniProt P18014 2-565).
T1 sequence: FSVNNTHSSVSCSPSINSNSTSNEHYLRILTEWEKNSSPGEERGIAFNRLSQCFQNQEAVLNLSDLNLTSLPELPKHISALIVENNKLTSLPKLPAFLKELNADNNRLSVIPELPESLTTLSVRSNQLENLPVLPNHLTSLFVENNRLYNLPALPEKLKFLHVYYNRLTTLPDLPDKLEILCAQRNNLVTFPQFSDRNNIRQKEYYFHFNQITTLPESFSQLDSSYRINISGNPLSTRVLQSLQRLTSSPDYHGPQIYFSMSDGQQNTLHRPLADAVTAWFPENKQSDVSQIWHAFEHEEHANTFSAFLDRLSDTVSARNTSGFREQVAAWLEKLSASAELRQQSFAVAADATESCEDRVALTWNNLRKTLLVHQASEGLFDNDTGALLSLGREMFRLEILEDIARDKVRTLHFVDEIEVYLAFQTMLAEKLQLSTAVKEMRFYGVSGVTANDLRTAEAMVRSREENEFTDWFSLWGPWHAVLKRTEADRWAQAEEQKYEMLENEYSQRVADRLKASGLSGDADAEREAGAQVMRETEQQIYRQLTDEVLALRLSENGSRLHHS
Nature of the test: MST.

B1: hsGSDMD-1D4 (purified, dye-labelled) (natural protein)
chain: MGSAFERVVRRVVQELDHGGEFIPVTSLQSSTGFQPYCLVVRKPSSSWFWKPRYKCVNLSIKDILEPDAAEPDVQRGRSFHFYDAMDGQIQGSVELAAPGQAKIAGGAAVSDSSSTSMNVYSLSVDPNTWQTLLHERHLRQPEHKVLQQLRSRGDNVYVVTEVLQTQKEVEVTRTHKREGSGRFSLPGATCLQGEGQGHLSQKKTVTIPSGSTLAFRVAQLVIDSDLDVLLFPDKKQRTFQPPATGHKRSTSEGAWPQLPSGLSMMRCLHNFLTDGVPAEGAFTEDFQGLRAEVETISKELELLDRELCQLLLEGLEGVLRDQLALRALEEALEQGQSLGPVEPLDGPAGAVLECLVLSSGMLVPELAIPVVYLLGALTMLSETQHKLLAEALESQTLLGPLELVGSLLEQSAPWQERSTMSLPPGLLGNSWGEGAPAWVLLDECGLELGEDTPHVCWEPQAQGRMCALYASLALLSGLSQEPH
modifications: labelled with the 2nd generation red-maleimide dye (Nanotemper protein labeling kit)
As to B1, the dissociation constant Kd (in general, the free concentration of one partner at which half of the binding sites on the other are occupied at equilibrium, for simple one-to-one binding) stood at 194 nM.
